The text below walks through data of publication PMC12702776 (2025).

In one assay the target is RAC1^P29S, purified (human, UniProt P63000 1-192, P29S). Description: mGppNHp-bound RAC1.
The target of assay [1] is T1, RAC1^F28L, purified (human, UniProt P63000 1-192, F28L). Description: mGppNHp-bound RAC1.
In assay [2] the target is T2, RAC1^WT (Ras-related C3 botulinum toxin substrate 1, wild type), purified (human, UniProt P63000 1-192). Put plainly: mGppNHp-bound RAC1.
The target in assay [3] is T3, RAC1^T17N, purified (human, UniProt P63000 1-192, T17N). Description: mGppNHp-bound RAC1.
Assay [4] addresses T1, RAC1^F28L, purified. Description: mdGDP-bound RAC1.
Assay [5] concerns the target T2, RAC1^WT (Ras-related C3 botulinum toxin …). Description: mdGDP-bound RAC1.
The target in assay [6] is T3, RAC1^T17N, purified. Description: mdGDP-bound RAC1.

B1: His-IQGAP1 C794 (C-terminal 794 amino acids of IQ motif-containing GTPase-activating protein 1) (domain or fragment)
chain: PPMVVVRKFVHLLDQSDQDFQEELDLMKMREEVITLIRSNQQLENDLNLMDIKIGLLVKNKITLQDVVSHSKKLTKKNKEQLSDMMMINKQKGGLKALSKEKREKLEAYQHLFYLLQTNPTYLAKLIFQMPQNKSTKFMDSVIFTLYNYASNQREEYLLLRLFKTALQEEIKSKVDQIQEIVTGNPTVIKMVVSFNRGARGQNALRQILAPVVKEIMDDKSLNIKTDPVDIYKSWVNQMESQTGEASKLPYDVTPEQALAHEEVKTRLDSSIRNMRAVTDKFLSAIVSSVDKIPYGMRFIAKVLKDSLHEKFPDAGEDELLKIIGNLLYYRYMNPAIVAPDAFDIIDLSAGGQLTTDQRRNLGSIAKMLQHAASNKMFLGDNAHLSIINEYLSQSYQKFRRFFQTACDVPELQDKFNVDEYSDLVTLTKPVIYISIGEIINTHTLLLDHQDAIAPEHNDPIHELLDDLGEVPTIESLIGESSGNLNDPNKEALAKTEVSLTLTNKFDVPGDENAEMDARTILLNTKRLIVDVIRFQPGETLTEILETPATSEQEAEHQRAMQRRAIRDAKTPDKMKKSKSVKEDSNLTLQEKKEKIQTGLKKLTELGTVDPKNKYQELINDIARDIRNQRRYRQRRKAELVKLQQTYAALNSKATFYGEQVDYYKSYIKTCLDNLASKGKVSKKPREMKGKKSKKISLKYTAARLHEKGVLLEIEDLQVNQFKNVIFEISPTEEVGDFEVKAKFMGVQMETFMLHYQDLLQLQYEGVAVMKLFDRAKVNVNLLIFLLNKKFYGK
B1: the koff with RAC1^P29S, purified stood at 0.138 s⁻¹; with RAC1^F28L, purified [1], 0.206 s⁻¹; in assay [2], 0.404 s⁻¹; with RAC1^T17N, purified [3], 0.0142 s⁻¹.

B2: GST-GDI1 (guanosine dissociation inhibitor 1, full-length) (natural protein)
chain: MAEQEPTAEQLAQIAAENEEDEHSVNYKPPAQKSIQEIQELDKDDESLRKYKEALLGRVAVSADPNVPNVVVTGLTLVCSSAPGPLELDLTGDLESFKKQSFVLKEGVEYRIKISFRVNREIVSGMKYIQHTYRKGVKIDKTDYMVGSYGPRAEEYEFLTPVEEAPKGMLARGSYSIKSRFTDDDKTDHLSWEWNLTIKKDWKD
As to B2, the koff with RAC1^F28L, purified [4] was found to be 1.03 s⁻¹; in assay [5] it was 0.693 s⁻¹; with RAC1^T17N, purified [6], 0.038 s⁻¹.
